Experimental data as given in paper PMC4748334.

Target: Francisella tularensis polyphosphate kinase 2 (FtPPK2) (Francisella tularensis subspecies tularensis SCHU S4)
Assay: crystal structure

Work on “Francisella tularensis polyphosphate kinase 2 (FtPPK2) (enzyme)” yielded a stoichiometry N of 4.
